Laboratory results from the supplement of paper PMC12042874.
± gives the uncertainty stated by the source.

Assay: amyloid nucleation score (Sup35N fusion, yeast selection) (log enrichment); library NNK2; higher = more nucleation; inactive = no reads after selection
Summary of the method: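 Using DiMSum, nucleation scores were taken as the log enrichment of output over input reads, centred on the mode score of non-aggregating sequences. The input and output reads came from Illumina sequencing of plasmid inserts, with sequences under 100 input reads excluded. The yeast were psi-negative, expressed Sup35N fused to peptides of 20 random codons, were induced with 100 μM copper sulfate for 24 hours, and were grown 7 days at 30°C on medium lacking adenine and uracil.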
Work on FFRNIIYRCMREIKFIEPSE yielded an amyloid nucleation score of -0.046 ± 0.63.
For FFSSTMNCVSLKRVKL, the amyloid nucleation score was -0.432 ± 1.1.
For FFTSSHNFCYLMGYNMIWFK, the amyloid nucleation score was “inactive”.
With FFYFTMWNKHFEFVYNSSPC the amyloid nucleation score was -0.613 ± 0.64.
In the case of FFYSGRGYTDKWHMGSLPRC, the amyloid nucleation score is reported as -0.964 ± 0.76.
For FFYYMRSIT, the amyloid nucleation score was -1.9 ± 0.78.
With FGGIASMMFVEMRRGSINEM the amyloid nucleation score was 3.51 ± 0.045.
In the case of FGICLVMRFLWYESSTPWED, the amyloid nucleation score is reported as -0.446 ± 1.
With FGKPGPRFLSSPGFSYP the amyloid nucleation score was 0.382 ± 0.51.
FGLLYYAYNRFMLARINGHT showed an amyloid nucleation score of -0.261 ± 1.1.
Work on FGNFLLSITII yielded an amyloid nucleation score of 2.4 ± 0.062.
Substance FGNRRSCHDIRSWIDRYLVR has an amyloid nucleation score of 1.69 ± 0.52.
With FGSVRASGISDFGRMDHGTG the amyloid nucleation score was -0.079 ± 0.76.
Work on FGYHGSYMWYAFQGHYNKGY yielded an amyloid nucleation score of 0.743 ± 0.42.
In the case of FHAKRTINMNGATVQYGLYA, the amyloid nucleation score is reported as -0.354 ± 0.76.
With FHCVVVYNNRQMCSVTKDSS the amyloid nucleation score was 7.962 ± 0.031.
Work on FHGGNFATDWFLWFINWEVA yielded an amyloid nucleation score of -0.259 ± 0.65.
For FHTNCYKIMMSGRHFHVSFD, the amyloid nucleation score was 8.932 ± 0.046.
FIADYYGGKTHGNLMSALTC gave an amyloid nucleation score of 1.06 ± 0.53.
In the case of FIAFFSWFFGWWRKMQAQAL, the amyloid nucleation score is reported as “inactive”.
FIAYRFWFWKGVSASKEHGQ showed an amyloid nucleation score of 0.433 ± 0.62.
Substance FICALTMYICSLY has an amyloid nucleation score of 7.389 ± 0.027.
With FICSAYFECRRDSYEFFVGC the amyloid nucleation score was “inactive”.
In the case of FICVCIVKNKGMGRPCN, the amyloid nucleation score is reported as 2.72 ± 0.1.
Substance FIDFGVVVSWVL has an amyloid nucleation score of 0.985 ± 0.3.
In the case of FIDLYLRFWVCTSFQCAHSI, the amyloid nucleation score is reported as “inactive”.
FIGCKEHNILNSMKRVD gave an amyloid nucleation score of -0.594 ± 1.1.
For FIIRYLYYKS, the amyloid nucleation score was “inactive”.
In the case of FIITNWQVSFRL, the amyloid nucleation score is reported as 4.383 ± 0.042.
FIKVFCSLRVDNQVRYRKRL gave an amyloid nucleation score of 2.75 ± 0.1.
Work on FILQELCWPVLSSIHFGNVA yielded an amyloid nucleation score of -1.15 ± 0.36.
For FINSD, the amyloid nucleation score was “inactive”.
With FINSVVKLLLGNDMSCYSCH the amyloid nucleation score was 5.65 ± 0.081.
Work on FIPEERDIWGYAPGNCIFFR yielded an amyloid nucleation score of -1.77 ± 0.54.
With FIRIVSFMRWHATTSALAIA the amyloid nucleation score was 0.106 ± 0.36.
For FISTGRHTICDIVAHNADLF, the amyloid nucleation score was -0.305 ± 0.8.
With FITEDLVRAFANYVND the amyloid nucleation score was “inactive”.
With FIVSDSRCVGNVTNGQSVLS the amyloid nucleation score was -0.97 ± 0.63.
FIWSLRGDDRSCLRLSSLQT gave an amyloid nucleation score of -1 ± 0.63.
For FKAERSFLLSRYILKREGSQ, the amyloid nucleation score was -0.972 ± 0.34.
In the case of FKFVIYRFIFHPSEVPKGD, the amyloid nucleation score is reported as 0.057 ± 1.1.
With FKFYGFFD the amyloid nucleation score was “inactive”.
In the case of FKFYYVYYDITFYEC, the amyloid nucleation score is reported as -0.454 ± 0.28.
In the case of FKINESSYVLWDGSSYCRAG, the amyloid nucleation score is reported as -0.711 ± 1.1.
Substance FKLICTRSWLRLG has an amyloid nucleation score of 3.91 ± 0.056.
FKNLAFTFNLQCL showed an amyloid nucleation score of 6.472 ± 0.051.
FKNRGLLICFEEEHLCAKRR showed an amyloid nucleation score of -1.05 ± 0.78.
In the case of FKNTIV, the amyloid nucleation score is reported as -0.343 ± 0.56.
In the case of FKSVLWCKFLTDIG, the amyloid nucleation score is reported as 6.04 ± 0.064.
For FKSVSRSVALLRYPCLPKFS, the amyloid nucleation score was -0.47 ± 0.74.
Substance FKVRIVGPLTAGMVE has an amyloid nucleation score of -1.01 ± 0.34.
FLAGVSVFWSYCDSTNLSNQ showed an amyloid nucleation score of -0.111 ± 0.29.
In the case of FLCVTISLDNSVACLPLRYS, the amyloid nucleation score is reported as 0.532 ± 0.66.
Substance FLCVYDFVVRNIKGIVLRLH has an amyloid nucleation score of 0.294 ± 0.8.
For FLFAKYGSIIDTSVVDRLAR, the amyloid nucleation score was 0.979 ± 0.5.
FLFRKYWLTNRWLFMFKEFA showed an amyloid nucleation score of 0.196 ± 0.65.
Work on FLFYTFRLRVFFLNCNSEDW yielded an amyloid nucleation score of -1.97 ± 0.54.
In the case of FLGCYGLNCVSWKGMMSTPL, the amyloid nucleation score is reported as 4.31 ± 0.072.
FLGKDWYVVTSVVKYTNAFF showed an amyloid nucleation score of 0.104 ± 0.45.
With FLIKAKGFYSSLLATGGIEK the amyloid nucleation score was “inactive”.
For FLISSMHWYCHKPCWGFLGQ, the amyloid nucleation score was -0.569 ± 0.79.
In the case of FLLPIWGSNHNTLNFR, the amyloid nucleation score is reported as -0.547 ± 1.1.
With FLLRIWTACVLFACKYRGIR the amyloid nucleation score was “inactive”.
FLLRVSSSTKTRRSSGVDL gave an amyloid nucleation score of 3.69 ± 0.095.
Work on FLLTKSRCLEVFA yielded an amyloid nucleation score of 4.68 ± 0.065.
In the case of FLNHE, the amyloid nucleation score is reported as “inactive”.
FLNHYWLYFQP showed an amyloid nucleation score of 5.353 ± 0.044.
In the case of FLSVARPTF, the amyloid nucleation score is reported as “inactive”.
